Data from paper PMC8409457, “An evolution-inspired strategy to design disulfide-rich peptides tolerant to extensive sequence manipulation†” (Chemical Science, 2021).
Bridges are numbered along the chain shown (N, C = ends). Where no end group is shown, it is not given here.

B1: oxidized peptide 15 (peptide)
chain: GCEKATESESPCPCIFPELCPWIVCC
modifications: disulfide 12-25, 14-20, 2-26
B2: tricyclic peptide 17 (peptide)
chain: GCGSDEACFCPCSHPENCPMAQHC
modifications: disulfide (positions not given here)

Key:
[1] = target: T1, MDM2 (UniProt Q00987 1-491); assay: fluorescence polarisation; competition assay on MDM2 (reported assay, ref. 17); peptides purified by HPLC to >95%; tracer not named; settings: both partners purified
T1 construct: MDM2, the protein target of pb13
T1 sequence (Q00987 whole entry): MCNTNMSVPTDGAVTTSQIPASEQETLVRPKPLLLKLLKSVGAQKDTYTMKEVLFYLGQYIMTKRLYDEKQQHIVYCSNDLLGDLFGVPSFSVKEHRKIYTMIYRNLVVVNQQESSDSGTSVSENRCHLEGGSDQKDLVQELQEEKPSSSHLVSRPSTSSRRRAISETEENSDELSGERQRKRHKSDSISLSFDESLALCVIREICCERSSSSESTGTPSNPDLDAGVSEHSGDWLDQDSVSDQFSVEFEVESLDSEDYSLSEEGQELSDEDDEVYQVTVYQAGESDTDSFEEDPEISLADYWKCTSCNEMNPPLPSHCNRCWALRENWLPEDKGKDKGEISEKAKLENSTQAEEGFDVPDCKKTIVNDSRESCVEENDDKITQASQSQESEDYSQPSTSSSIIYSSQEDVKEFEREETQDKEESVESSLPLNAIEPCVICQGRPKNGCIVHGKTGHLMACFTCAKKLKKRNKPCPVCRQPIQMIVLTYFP

[2] = target: T2, streptavidin (UniProt P22629 25-183); assay: SPR; binding of peptide to streptavidin; settings: both partners purified
T2 construct: streptavidin, model target; Source may be told in the ESI
T2 sequence (P22629 25-183): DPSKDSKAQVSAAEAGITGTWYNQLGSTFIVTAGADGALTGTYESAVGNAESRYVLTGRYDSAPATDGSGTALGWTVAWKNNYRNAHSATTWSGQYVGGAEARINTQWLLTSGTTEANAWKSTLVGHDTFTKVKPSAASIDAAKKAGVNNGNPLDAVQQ

Binder	Ki [1] [nM]	Kd [2] [nM]
B1	89	
B2		38
